# Laboratory results reported in paper PMC7876137, “Functional and structural characterization of a flavoprotein monooxygenase essential for biogenesis of tryptophylquinone cofactor” (Nature Communications, 2021).
# T1: linear QhpC (nascent QhpC polypeptide with the 28-residue leader peptide and a C-terminal Twin-Strep tag, … (Pseudomonas putida IFO 15366 (NBRC …)))
# T1 construct: also called QhpC-St2; source: E. coli C41 (DE3), co-expressed with His6-QhpD; QhpCD complex purified (HisTrap, Strep trap); QhpD removed by heat denaturation (60 °C, 20 min) before the QhpD-catalyzed reaction; not shown: Twin-Strep (St2), C-terminal, kept
# T1 chain: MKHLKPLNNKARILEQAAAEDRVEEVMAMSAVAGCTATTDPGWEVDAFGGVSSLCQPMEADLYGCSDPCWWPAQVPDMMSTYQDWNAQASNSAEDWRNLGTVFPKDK
# T2: crosslinked QhpC (quinone-less QhpC with three intra-peptidyl thioether bonds, the 28-residue leader peptide … (Pseudomonas putida IFO 15366 (NBRC …, three intra-peptidyl Cys-to-Asp/Glu thioether bonds (Cys7-Glu16, Cys27-Asp33, Cys41-Asp49 as drawn in Supplementary Fig. 5); Cys37 and Trp43 free)
# T2 construct: source: E. coli C41 (DE3), co-expressed with His6-QhpD; QhpCD complex purified (HisTrap, Strep trap); QhpD removed by heat denaturation (60 °C, 20 min) after the QhpD-catalyzed thioether bond formation; not shown: Twin-Strep (St2), C-terminal, kept
# T2 chain: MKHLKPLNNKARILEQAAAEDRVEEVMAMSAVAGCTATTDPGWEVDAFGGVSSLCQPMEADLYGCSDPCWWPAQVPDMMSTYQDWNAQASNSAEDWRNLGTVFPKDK
# B1: QhpG from Pseudomonas putida IFO 15366 (wild-type) (enzyme)
# chain: MAEPRIVVLGAGPAGAATAIGLRRLGYAVTVVSEWRRFAAVEGVSQRVLEGLRHVGLGGALRQAAMPATRQVHWNGQQLHLNQEFLLDRQRFDRALRDDLQRAGVSVVEGRVREVVRDVGHGIRLDDGQVLQADFLVEARGRQAPLAADRLRGPETVSLLNVWQAAPGAPASAVESLADGWAWMARLEDGRCYWQVTLDAAGLPGKAGLADYCAARRADSALVTELFDARALASAEVHARSSTAILAGECVGQDWIRVGDAAMAVDPLSGNGIFQSLSSALQAPVVINTLLRRPERAGLARQFHQQRIEQLFLRFARIGRDFYGQEQGRVGQPFWARRQGWPDMQALHVAADWSAVRVERRPVLRDGLVDEAEVVVTADQPLGVWHLQGVELAPAVRELQAGRPLEAVVSGLSGEQQRMVRRWLLEQGLV
# notes: Monomer by gel filtration; From the His6-TEV oligonucleotide, a few residues (G, H) may remain before Met1 after TEV cleavage; this is surmised; also called PpQhpG; peptidyl tryptophan dihydroxylase; source: E. coli C41 (DE3), purified (Ni-Sepharose FF, HisTrap HP; His6-tag removed with TEV protease, second HisTrap HP); not shown: His6, N-terminal, cleaved
# B2: QhpG R47A mutant (Pseudomonas putida) (enzyme)
# chain: MAEPRIVVLGAGPAGAATAIGLRRLGYAVTVVSEWRRFAAVEGVSQAVLEGLRHVGLGGALRQAAMPATRQVHWNGQQLHLNQEFLLDRQRFDRALRDDLQRAGVSVVEGRVREVVRDVGHGIRLDDGQVLQADFLVEARGRQAPLAADRLRGPETVSLLNVWQAAPGAPASAVESLADGWAWMARLEDGRCYWQVTLDAAGLPGKAGLADYCAARRADSALVTELFDARALASAEVHARSSTAILAGECVGQDWIRVGDAAMAVDPLSGNGIFQSLSSALQAPVVINTLLRRPERAGLARQFHQQRIEQLFLRFARIGRDFYGQEQGRVGQPFWARRQGWPDMQALHVAADWSAVRVERRPVLRDGLVDEAEVVVTADQPLGVWHLQGVELAPAVRELQAGRPLEAVVSGLSGEQQRMVRRWLLEQGLV
# notes: R47A is still to be applied; source: E. coli C41 (DE3), purified (Ni-Sepharose FF, HisTrap HP; His6-tag removed with TEV protease, second HisTrap HP); not shown: His6, N-terminal, cleaved
# B3: QhpG R70A mutant (Pseudomonas putida) (enzyme)
# chain: MAEPRIVVLGAGPAGAATAIGLRRLGYAVTVVSEWRRFAAVEGVSQRVLEGLRHVGLGGALRQAAMPATAQVHWNGQQLHLNQEFLLDRQRFDRALRDDLQRAGVSVVEGRVREVVRDVGHGIRLDDGQVLQADFLVEARGRQAPLAADRLRGPETVSLLNVWQAAPGAPASAVESLADGWAWMARLEDGRCYWQVTLDAAGLPGKAGLADYCAARRADSALVTELFDARALASAEVHARSSTAILAGECVGQDWIRVGDAAMAVDPLSGNGIFQSLSSALQAPVVINTLLRRPERAGLARQFHQQRIEQLFLRFARIGRDFYGQEQGRVGQPFWARRQGWPDMQALHVAADWSAVRVERRPVLRDGLVDEAEVVVTADQPLGVWHLQGVELAPAVRELQAGRPLEAVVSGLSGEQQRMVRRWLLEQGLV
# notes: R70A is still to be applied; source: E. coli C41 (DE3), purified (Ni-Sepharose FF, HisTrap HP; His6-tag removed with TEV protease, second HisTrap HP); not shown: His6, N-terminal, cleaved
# B4: QhpG W183F mutant (Pseudomonas putida) (enzyme)
# chain: MAEPRIVVLGAGPAGAATAIGLRRLGYAVTVVSEWRRFAAVEGVSQRVLEGLRHVGLGGALRQAAMPATRQVHWNGQQLHLNQEFLLDRQRFDRALRDDLQRAGVSVVEGRVREVVRDVGHGIRLDDGQVLQADFLVEARGRQAPLAADRLRGPETVSLLNVWQAAPGAPASAVESLADGWAFMARLEDGRCYWQVTLDAAGLPGKAGLADYCAARRADSALVTELFDARALASAEVHARSSTAILAGECVGQDWIRVGDAAMAVDPLSGNGIFQSLSSALQAPVVINTLLRRPERAGLARQFHQQRIEQLFLRFARIGRDFYGQEQGRVGQPFWARRQGWPDMQALHVAADWSAVRVERRPVLRDGLVDEAEVVVTADQPLGVWHLQGVELAPAVRELQAGRPLEAVVSGLSGEQQRMVRRWLLEQGLV
# notes: W183F is still to be applied; source: E. coli C41 (DE3), purified (Ni-Sepharose FF, HisTrap HP; His6-tag removed with TEV protease, second HisTrap HP); not shown: His6, N-terminal, cleaved
# B5: QhpG E42A mutant (Pseudomonas putida) (enzyme)
# chain: MAEPRIVVLGAGPAGAATAIGLRRLGYAVTVVSEWRRFAAVAGVSQRVLEGLRHVGLGGALRQAAMPATRQVHWNGQQLHLNQEFLLDRQRFDRALRDDLQRAGVSVVEGRVREVVRDVGHGIRLDDGQVLQADFLVEARGRQAPLAADRLRGPETVSLLNVWQAAPGAPASAVESLADGWAWMARLEDGRCYWQVTLDAAGLPGKAGLADYCAARRADSALVTELFDARALASAEVHARSSTAILAGECVGQDWIRVGDAAMAVDPLSGNGIFQSLSSALQAPVVINTLLRRPERAGLARQFHQQRIEQLFLRFARIGRDFYGQEQGRVGQPFWARRQGWPDMQALHVAADWSAVRVERRPVLRDGLVDEAEVVVTADQPLGVWHLQGVELAPAVRELQAGRPLEAVVSGLSGEQQRMVRRWLLEQGLV
# notes: E42A is still to be applied; source: E. coli C41 (DE3), purified (Ni-Sepharose FF, HisTrap HP; His6-tag removed with TEV protease, second HisTrap HP); not shown: His6, N-terminal, cleaved
# B6: QhpG R314A mutant (Pseudomonas putida) (enzyme)
# chain: MAEPRIVVLGAGPAGAATAIGLRRLGYAVTVVSEWRRFAAVEGVSQRVLEGLRHVGLGGALRQAAMPATRQVHWNGQQLHLNQEFLLDRQRFDRALRDDLQRAGVSVVEGRVREVVRDVGHGIRLDDGQVLQADFLVEARGRQAPLAADRLRGPETVSLLNVWQAAPGAPASAVESLADGWAWMARLEDGRCYWQVTLDAAGLPGKAGLADYCAARRADSALVTELFDARALASAEVHARSSTAILAGECVGQDWIRVGDAAMAVDPLSGNGIFQSLSSALQAPVVINTLLRRPERAGLARQFHQQRIEQLFLAFARIGRDFYGQEQGRVGQPFWARRQGWPDMQALHVAADWSAVRVERRPVLRDGLVDEAEVVVTADQPLGVWHLQGVELAPAVRELQAGRPLEAVVSGLSGEQQRMVRRWLLEQGLV
# notes: R314A is still to be applied; source: E. coli C41 (DE3), purified (Ni-Sepharose FF, HisTrap HP; His6-tag removed with TEV protease, second HisTrap HP); not shown: His6, N-terminal, cleaved
# Biological target: T1, linear QhpC (nascent QhpC polypeptide …)
# Assay: BLI; BLItz system; linear or crosslinked QhpC immobilised through the St2-tag on streptavidin-coated biosensors; QhpG as analyte; 10 mM Tris-HCl pH 7.4, 150 mM NaCl, 0.1% BSA, 0.02% Tween 20; 25 °C; reference with a ligand-free biosensor; global analysis
# Details: both partners purified
Molecule,Kd,koff,kon
B1,2.8 ± 0.022 µM,0.16 s⁻¹,59000 M⁻¹ s⁻¹

# Biological target: T2, crosslinked QhpC (quinone-less QhpC …)
# Assay: as above
# Details: both partners purified
Molecule,Kd,koff,kon
B1,0.028 ± 0.0023 µM,0.014 s⁻¹,490000 M⁻¹ s⁻¹
B2,1.5 ± 0.49 µM,0.023 s⁻¹,15000 M⁻¹ s⁻¹
B3,0.048 ± 0.0036 µM,0.022 s⁻¹,470000 M⁻¹ s⁻¹
B4,0.037 ± 0.019 µM,0.013 s⁻¹,360000 M⁻¹ s⁻¹
B5,0.065 ± 0.0081 µM,0.011 s⁻¹,170000 M⁻¹ s⁻¹
B6,0.078 ± 0.028 µM,0.011 s⁻¹,140000 M⁻¹ s⁻¹

# Biological target: crosslinked QhpC (quinone-less QhpC of Ps. putida with three intra-peptidyl thioether bonds, the 28-residue leader peptide and a C-terminal Twin-Strep tag) (Pseudomonas putida IFO 15366 (NBRC 15366))
# Assay: BLI; BLItz; QhpC immobilised through the St2-tag on streptavidin-coated biosensors, QhpG as analyte; 10 mM Tris-HCl, pH 7.4, 150 mM NaCl, 0.1% BSA, 0.02% Tween 20, 25 °C; global analysis
# Details: not given
row,Molecule,fold higher affinity (KD) than for linear QhpC
1,"QhpG from Pseudomonas putida (flavoprotein monooxygenase, peptidyl tryptophan dihydroxylase), tag-less wild type (enzyme)",100 fold
